Test results published in US20250186604A1, “ANTI-PSMA ANTIBODY CONJUGATES” (ADC THERAPEUTICS SA, priority 2023, published 2025).
pEC50: −log10 of the molar value.

Target: Human PSMA (Prostate-Specific Membrane Antigen) (human) (UniProt Q04609)
Test: ELISA, human PSMA coated on plate, anti-human-IgG-HRP detection

Chain of Human PSMA (Prostate-Specific Membrane Antigen) (human) (Q04609 44-750 limits assumed): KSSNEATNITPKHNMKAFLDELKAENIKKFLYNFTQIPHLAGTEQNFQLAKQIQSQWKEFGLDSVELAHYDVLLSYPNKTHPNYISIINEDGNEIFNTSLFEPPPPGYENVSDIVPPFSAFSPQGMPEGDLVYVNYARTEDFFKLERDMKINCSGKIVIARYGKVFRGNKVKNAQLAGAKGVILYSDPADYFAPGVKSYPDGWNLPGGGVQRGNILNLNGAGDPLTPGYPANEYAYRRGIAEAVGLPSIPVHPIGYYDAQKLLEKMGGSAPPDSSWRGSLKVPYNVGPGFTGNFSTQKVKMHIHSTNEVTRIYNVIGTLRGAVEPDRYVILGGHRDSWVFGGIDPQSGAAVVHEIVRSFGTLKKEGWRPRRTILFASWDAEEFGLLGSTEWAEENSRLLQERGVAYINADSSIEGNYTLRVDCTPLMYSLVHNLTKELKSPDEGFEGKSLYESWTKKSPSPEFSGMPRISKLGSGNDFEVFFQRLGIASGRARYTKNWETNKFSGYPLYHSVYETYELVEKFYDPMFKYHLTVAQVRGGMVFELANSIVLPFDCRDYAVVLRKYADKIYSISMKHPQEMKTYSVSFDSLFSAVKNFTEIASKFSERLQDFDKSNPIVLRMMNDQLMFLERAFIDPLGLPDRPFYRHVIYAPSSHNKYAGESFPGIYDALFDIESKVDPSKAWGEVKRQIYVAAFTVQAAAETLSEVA

Substance: J591 (antibody)
- pEC50: 9.57
